{"source": "paper PMC7159994", "biological_target": "GST-IRP2Δ73 (human) (UniProt P48200)", "assay": "AlphaScreen or HTRF"}
{"substance": "FBXL5C492Δ-SKP1 complex (tag-free) (from UniProt Q9UKA1 200-691; P63208 1-163)", "values": [{"measurement": "IC50", "value": 0.12, "unit": "nM"}]}
